In the supplement of paper PMC10065799, “High-throughput profiling of sequence recognition by tyrosine kinases and SH2 domains using bacterial peptide display” (eLife, 2023):

Key:
c-Src SH2 = experiment: SH2 binding enrichment of the phosphorylated peptide, bacterial display (enrichment ratio); higher = better substrate or ligand; peptides without Tyr show the background
Grb2 SH2 = Grb2 SH2 (UniProt P62993); experiment: as above
SHP2-C SH2 = experiment: as above
MERTK = MERTK (UniProt Q12866); experiment: phosphorylation enrichment, bacterial display (enrichment ratio); higher = better substrate or ligand; peptides without Tyr show the background
EPHB1 = EPHB1 (UniProt P54762); experiment: as above
EPHB2 = EPHB2 (UniProt P29323); experiment: as above
FGFR1 = FGFR1 (UniProt P11362); experiment: as above
c-Abl (mouse) = experiment: as above
Hck = Hck (UniProt P08631); experiment: as above
Fyn = Fyn (UniProt P06241); experiment: as above
FGFR3 = FGFR3 (UniProt P22607); experiment: as above
c-Src = experiment: as above
Jak2 = Jak2 (UniProt O60674); experiment: as above
Fer (mouse) = experiment: as above
Fes = Fes (UniProt P07332); experiment: as above
AncSZ = experiment: as above
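For SH2 binding enrichment of the phosphorylated peptide, bacterial display in this document: peptide library displayed on the E. coli surface as eCPX fusions, selected cells deep-sequenced, score is each peptide's frequency after selection divided by its frequency in the input.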
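For phosphorylation enrichment, bacterial display in this document: 11-residue human phosphosite peptides and single-mutation variants displayed on the E. coli surface, counted by deep sequencing, each peptide's frequency after selection divided by its frequency in the unselected input library; frequency after pTyr selection over input frequency; kinase dosed for 20-30% of maximal phosphorylation in three min.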

Chain of MERTK (Q12866 whole entry, looked up): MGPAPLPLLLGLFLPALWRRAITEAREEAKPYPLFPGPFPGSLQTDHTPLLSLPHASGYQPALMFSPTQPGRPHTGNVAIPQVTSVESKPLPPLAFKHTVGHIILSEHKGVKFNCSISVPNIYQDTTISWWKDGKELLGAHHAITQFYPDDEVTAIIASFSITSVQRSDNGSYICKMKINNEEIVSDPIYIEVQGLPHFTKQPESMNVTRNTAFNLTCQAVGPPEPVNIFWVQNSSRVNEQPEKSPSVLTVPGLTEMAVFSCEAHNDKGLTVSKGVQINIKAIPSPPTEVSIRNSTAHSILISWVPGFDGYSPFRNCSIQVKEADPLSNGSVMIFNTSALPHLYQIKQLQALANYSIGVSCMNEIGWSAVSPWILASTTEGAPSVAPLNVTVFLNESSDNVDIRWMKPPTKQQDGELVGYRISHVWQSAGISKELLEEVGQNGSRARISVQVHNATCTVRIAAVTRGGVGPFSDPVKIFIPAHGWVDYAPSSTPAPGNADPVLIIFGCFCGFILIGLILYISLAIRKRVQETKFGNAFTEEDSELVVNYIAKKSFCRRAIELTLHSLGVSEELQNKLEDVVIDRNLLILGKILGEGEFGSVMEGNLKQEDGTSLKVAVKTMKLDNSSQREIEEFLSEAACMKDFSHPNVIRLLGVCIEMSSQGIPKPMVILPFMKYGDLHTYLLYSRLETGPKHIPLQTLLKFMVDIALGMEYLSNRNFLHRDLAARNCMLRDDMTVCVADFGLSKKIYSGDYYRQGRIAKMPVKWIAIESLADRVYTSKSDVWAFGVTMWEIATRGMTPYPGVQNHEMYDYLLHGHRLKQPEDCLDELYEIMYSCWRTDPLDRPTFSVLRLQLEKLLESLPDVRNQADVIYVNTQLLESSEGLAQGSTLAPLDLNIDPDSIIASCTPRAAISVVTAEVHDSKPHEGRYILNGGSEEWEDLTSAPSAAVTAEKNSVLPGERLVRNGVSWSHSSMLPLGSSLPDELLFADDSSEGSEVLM
Chain of FGFR1 (P11362 whole entry, looked up): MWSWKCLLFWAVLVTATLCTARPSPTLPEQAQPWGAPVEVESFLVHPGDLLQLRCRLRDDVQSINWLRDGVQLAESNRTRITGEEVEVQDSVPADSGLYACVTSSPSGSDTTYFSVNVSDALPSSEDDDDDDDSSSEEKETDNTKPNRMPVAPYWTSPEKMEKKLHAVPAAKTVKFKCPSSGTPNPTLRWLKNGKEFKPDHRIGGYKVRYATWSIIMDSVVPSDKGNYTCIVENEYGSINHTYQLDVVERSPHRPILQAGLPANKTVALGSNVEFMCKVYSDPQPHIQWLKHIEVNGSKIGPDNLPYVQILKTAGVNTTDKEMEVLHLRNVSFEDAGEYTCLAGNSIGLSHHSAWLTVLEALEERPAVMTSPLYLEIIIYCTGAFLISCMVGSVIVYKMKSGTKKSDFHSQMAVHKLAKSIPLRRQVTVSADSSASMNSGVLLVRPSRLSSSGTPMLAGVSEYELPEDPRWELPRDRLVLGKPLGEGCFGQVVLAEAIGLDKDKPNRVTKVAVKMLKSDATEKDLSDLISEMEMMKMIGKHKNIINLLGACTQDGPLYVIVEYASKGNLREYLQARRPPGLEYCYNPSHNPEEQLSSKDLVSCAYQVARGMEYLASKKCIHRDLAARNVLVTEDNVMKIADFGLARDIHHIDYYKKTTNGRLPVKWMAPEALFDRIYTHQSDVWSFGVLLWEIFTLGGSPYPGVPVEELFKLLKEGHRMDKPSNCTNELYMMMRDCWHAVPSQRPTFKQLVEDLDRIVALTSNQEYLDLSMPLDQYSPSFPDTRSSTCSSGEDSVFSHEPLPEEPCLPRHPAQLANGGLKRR
Chain of Fes (P07332 whole entry, looked up): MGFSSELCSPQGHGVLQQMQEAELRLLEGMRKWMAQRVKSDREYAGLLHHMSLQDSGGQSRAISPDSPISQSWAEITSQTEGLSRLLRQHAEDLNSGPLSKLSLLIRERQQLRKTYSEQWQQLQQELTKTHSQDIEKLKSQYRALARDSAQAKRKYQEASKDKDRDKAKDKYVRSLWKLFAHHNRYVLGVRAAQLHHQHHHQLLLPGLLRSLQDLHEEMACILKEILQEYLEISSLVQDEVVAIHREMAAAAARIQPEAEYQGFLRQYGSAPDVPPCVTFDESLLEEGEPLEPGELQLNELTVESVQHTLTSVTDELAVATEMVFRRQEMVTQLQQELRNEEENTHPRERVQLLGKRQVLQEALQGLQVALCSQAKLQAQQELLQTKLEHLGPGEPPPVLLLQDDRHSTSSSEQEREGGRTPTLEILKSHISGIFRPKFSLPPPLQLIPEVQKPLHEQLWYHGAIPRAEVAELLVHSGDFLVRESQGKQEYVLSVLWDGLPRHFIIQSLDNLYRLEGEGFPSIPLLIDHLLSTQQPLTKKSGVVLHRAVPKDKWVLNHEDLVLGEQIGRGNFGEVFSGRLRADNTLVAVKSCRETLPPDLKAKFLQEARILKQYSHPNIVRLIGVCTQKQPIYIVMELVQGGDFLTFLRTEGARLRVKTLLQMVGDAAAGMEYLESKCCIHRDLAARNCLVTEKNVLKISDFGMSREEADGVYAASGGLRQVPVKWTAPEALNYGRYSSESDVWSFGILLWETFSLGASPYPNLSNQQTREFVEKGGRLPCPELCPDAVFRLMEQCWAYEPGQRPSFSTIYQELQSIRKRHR
Chain of EPHB1 (P54762 whole entry, looked up): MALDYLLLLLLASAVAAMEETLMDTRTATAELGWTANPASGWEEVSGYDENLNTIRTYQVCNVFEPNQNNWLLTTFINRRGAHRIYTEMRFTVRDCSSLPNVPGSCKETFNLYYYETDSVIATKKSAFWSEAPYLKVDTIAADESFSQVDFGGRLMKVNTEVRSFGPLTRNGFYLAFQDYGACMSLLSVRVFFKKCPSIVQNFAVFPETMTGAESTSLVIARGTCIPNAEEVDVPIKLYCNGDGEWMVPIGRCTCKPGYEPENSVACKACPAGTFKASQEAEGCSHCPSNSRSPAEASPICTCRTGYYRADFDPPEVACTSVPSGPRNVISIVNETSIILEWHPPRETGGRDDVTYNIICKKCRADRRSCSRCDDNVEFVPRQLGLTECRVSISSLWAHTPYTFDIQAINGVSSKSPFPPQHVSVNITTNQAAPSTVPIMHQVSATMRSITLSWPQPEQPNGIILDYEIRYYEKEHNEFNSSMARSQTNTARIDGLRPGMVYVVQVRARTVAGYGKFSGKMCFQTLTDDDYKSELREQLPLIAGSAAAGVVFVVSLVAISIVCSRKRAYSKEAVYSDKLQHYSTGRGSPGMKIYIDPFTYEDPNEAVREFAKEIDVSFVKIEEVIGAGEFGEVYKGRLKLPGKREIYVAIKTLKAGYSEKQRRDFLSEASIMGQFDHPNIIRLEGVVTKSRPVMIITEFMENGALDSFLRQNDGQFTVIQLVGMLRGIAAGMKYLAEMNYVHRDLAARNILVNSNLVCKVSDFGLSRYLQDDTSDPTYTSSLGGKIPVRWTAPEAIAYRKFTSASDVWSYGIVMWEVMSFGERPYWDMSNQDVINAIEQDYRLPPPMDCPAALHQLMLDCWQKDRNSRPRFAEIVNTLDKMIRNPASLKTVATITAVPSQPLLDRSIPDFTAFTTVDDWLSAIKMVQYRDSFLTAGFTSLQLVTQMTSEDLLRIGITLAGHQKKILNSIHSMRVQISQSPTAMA
Chain of Fyn (P06241 whole entry, looked up): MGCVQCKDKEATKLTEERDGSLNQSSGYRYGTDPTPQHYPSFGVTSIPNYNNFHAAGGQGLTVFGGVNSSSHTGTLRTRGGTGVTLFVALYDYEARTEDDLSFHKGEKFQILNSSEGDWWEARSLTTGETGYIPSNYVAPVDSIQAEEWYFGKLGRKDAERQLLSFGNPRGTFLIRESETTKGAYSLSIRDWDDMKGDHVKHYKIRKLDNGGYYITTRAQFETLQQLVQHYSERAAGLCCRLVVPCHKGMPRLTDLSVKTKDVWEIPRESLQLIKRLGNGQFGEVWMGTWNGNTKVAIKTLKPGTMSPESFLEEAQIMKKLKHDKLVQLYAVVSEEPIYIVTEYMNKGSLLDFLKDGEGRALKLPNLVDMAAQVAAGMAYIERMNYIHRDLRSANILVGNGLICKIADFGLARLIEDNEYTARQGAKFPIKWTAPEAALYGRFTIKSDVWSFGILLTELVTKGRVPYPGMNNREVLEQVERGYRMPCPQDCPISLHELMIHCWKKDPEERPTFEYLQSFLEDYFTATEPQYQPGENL
Chain of Hck (P08631 whole entry, looked up): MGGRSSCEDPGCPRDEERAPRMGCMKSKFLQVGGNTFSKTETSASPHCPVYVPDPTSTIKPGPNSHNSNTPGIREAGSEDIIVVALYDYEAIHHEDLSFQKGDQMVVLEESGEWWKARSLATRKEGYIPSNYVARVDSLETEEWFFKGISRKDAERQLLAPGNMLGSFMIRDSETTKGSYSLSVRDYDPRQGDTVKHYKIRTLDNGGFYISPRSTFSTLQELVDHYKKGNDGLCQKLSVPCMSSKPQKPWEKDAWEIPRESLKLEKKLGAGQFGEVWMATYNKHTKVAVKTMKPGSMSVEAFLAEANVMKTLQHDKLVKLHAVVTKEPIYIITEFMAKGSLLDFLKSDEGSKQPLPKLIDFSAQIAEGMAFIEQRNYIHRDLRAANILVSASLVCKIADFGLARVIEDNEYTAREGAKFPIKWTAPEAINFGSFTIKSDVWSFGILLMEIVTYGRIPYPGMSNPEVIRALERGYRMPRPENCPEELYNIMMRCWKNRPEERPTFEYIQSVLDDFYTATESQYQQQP

SH2 binding enrichment (c-Src SH2) | SH2 binding enrichment (Grb2 SH2) | SH2 binding enrichment (SHP2-C SH2) | Sequence | phosphorylation enrichment (MERTK) | phosphorylation enrichment (EPHB1) | phosphorylation enrichment (EPHB2) | phosphorylation enrichment (FGFR1) | phosphorylation enrichment (c-Abl (mouse)) | phosphorylation enrichment (Hck) | phosphorylation enrichment (Fyn) | phosphorylation enrichment (FGFR3) | phosphorylation enrichment (c-Src) | phosphorylation enrichment (Jak2) | phosphorylation enrichment (Fer (mouse)) | phosphorylation enrichment (Fes) | phosphorylation enrichment (AncSZ)
0.418 | 0.786 | 0.614 | AAVDEYLEHRR [FAM221A_Y17_Y20H] | 0.388 | 0.562 | 0.581 | 0.467 | 0.778 | 0.452 | 0.48 | 0.695 | 0.389 | 0.875 | 0.421 | 1.03 | 0.96
0.44 | 0.882 | 0.804 | MGHVNYGAFIN [GLB1_Y485_R482H_YF] | 0.391 | 0.565 | 0.615 | 0.449 | 0.565 | 0.609 | 0.672 | 0.505 | 0.706 | 0.72 | 0.406 | 0.756 | 0.611
0.599 | 1 | 0.747 | FISVGYVDDTQ [HLA-B_Y51] | 0.432 | 0.507 | 0.593 | 0.556 | 0.752 | 0.444 | 0.47 | 0.743 | 0.405 | 0.801 | 0.471 | 1.05 | 0.808
0.44 | 0.823 | 0.648 | KAIDMYLMGCF [GABRB2_Y308] | 0.425 | 0.566 | 0.551 | 0.504 | 1.06 | 0.535 | 0.515 | 1.04 | 0.75 | 1.04 | 0.486 | 1.21 | 1.27
1.36 | 1.12 | 0.797 | LISVSYDDWDF [GRIN2A_Y281_YF] | 1.03 | 1.46 | 1 | 1.08 | 1.64 | 0.893 | 0.953 | 1.09 | 1.07 | 2.06 | 19.4 | 2.44 | 3.36
1.89 | 1.15 | 1.05 | LRSELYSLIAR [PHIP_Y16_F17S] | 11 | 5.23 | 1.36 | 0.693 | 0.566 | 7.53 | 1.63 | 0.811 | 2.26 | 0.54 | 4.78 | 1.11 | 0.919
0.804 | 1.29 | 1.02 | NPQKSYFIHLY [WAS_Y83_R86H] | 0.424 | 0.588 | 0.586 | 0.46 | 0.864 | 0.559 | 0.589 | 0.782 | 0.407 | 1.18 | 0.517 | 1.23 | 1.12
0.472 | 0.969 | 0.54 | GVKLTYGDAQN [SLC28A1_Y404] | 0.397 | 0.379 | 0.45 | 0.53 | 0.813 | 0.369 | 0.479 | 0.473 | 0.499 | 1.63 | 0.397 | 0.872 | 0.726
0.462 | 0.9 | 0.652 | EHLNRYISDTF [TTLL10_Y446] | 0.393 | 0.44 | 0.473 | 0.428 | 0.655 | 0.51 | 0.434 | 0.567 | 0.42 | 0.535 | 0.434 | 0.641 | 0.737
5.15 | 1.03 | 0.938 | HVKHNYECLVY [XRCC5_Y416_I412V] | 0.519 | 2.87 | 2.04 | 0.75 | 1.01 | 0.842 | 0.922 | 1.12 | 2.04 | 1.12 | 0.573 | 1.2 | 1.06
0.767 | 1.49 | 1.19 | CEHRGYLFLAI [TEK_Y897_YF] | 0.37 | 0.502 | 0.69 | 0.545 | 0.813 | 0.45 | 0.443 | 0.628 | 0.496 | 1.01 | 0.508 | 0.906 | 0.951
0.607 | 1.03 | 0.766 | WQQQSYLDLGI [CTNNB1_Y30_S33L] | 0.511 | 0.719 | 0.593 | 1.76 | 0.685 | 0.478 | 0.545 | 1.36 | 0.517 | 1.35 | 0.515 | 0.918 | 0.831
0.47 | 0.674 | 0.519 | QQLQGYIPSNF [FRK_Y99_YF] | 0.878 | 0.763 | 0.881 | 0.884 | 0.899 | 0.647 | 0.938 | 1.09 | 0.546 | 0.981 | 0.679 | 1.29 | 1.11
0.461 | 0.589 | 0.513 | IFRASYFRKGG [ALK_Y1282_YF] | 0.706 | 0.55 | 0.621 | 0.518 | 0.721 | 0.674 | 0.619 | 0.625 | 0.688 | 1.11 | 0.581 | 0.899 | 1.02
0.48 | 0.835 | 0.607 | IFQASYFRRGD [LTK_Y676_R673Q_YF] | 0.628 | 0.516 | 0.518 | 0.544 | 0.789 | 0.517 | 0.499 | 0.619 | 0.543 | 1.18 | 0.416 | 1.23 | 1.05
0.389 | 0.87 | 0.78 | GGTPLYRDRQG [AGXT_Y194_M195R] | 0.364 | 0.383 | 0.435 | 0.44 | 0.5 | 0.398 | 0.378 | 0.423 | 0.358 | 0.4 | 0.415 | 0.499 | 0.652
0.62 | 0.851 | 0.632 | QQLVAYYSKHA [SRC_Y232] | 0.944 | 0.765 | 0.916 | 0.71 | 0.934 | 0.781 | 0.723 | 1.14 | 1.02 | 1.3 | 0.559 | 1.15 | 1.75

SH2 binding enrichment (c-Src SH2) | SH2 binding enrichment (Grb2 SH2) | SH2 binding enrichment (SHP2-C SH2) | Sequence | phosphorylation enrichment (MERTK) | phosphorylation enrichment (EPHB1) | phosphorylation enrichment (EPHB2) | phosphorylation enrichment (FGFR1) | phosphorylation enrichment (c-Abl (mouse)) | phosphorylation enrichment (Hck) | phosphorylation enrichment (Fyn) | phosphorylation enrichment (FGFR3) | phosphorylation enrichment (c-Src) | phosphorylation enrichment (Jak2) | phosphorylation enrichment (Fer (mouse)) | phosphorylation enrichment (Fes) | phosphorylation enrichment (AncSZ)
0.595 | 0.947 | 0.749 | RSDEDYLCREE [POR_Y573_Y575C] | 0.785 | 0.747 | 0.737 | 0.623 | 1.01 | 0.769 | 0.716 | 1.27 | 0.765 | 1.34 | 0.951 | 2.34 | 1.54
0.621 | 0.707 | 0.572 | RNYDTYTAGLS [RHBDD1_Y264] | 0.841 | 7.39 | 14.6 | 0.602 | 0.729 | 5.02 | 1.49 | 0.438 | 1.39 | 0.677 | 0.707 | 0.901 | 0.955
0.588 | 1.06 | 0.757 | VVQGIYGFHHH [UFSP2_Y285_Y290H_YF] | 9.65 | 0.65 | 1.19 | 0.523 | 2.36 | 10.8 | 11.7 | 0.496 | 9.09 | 0.538 | 11.7 | 0.776 | 0.685
0.456 | 0.867 | 0.756 | EQRRAYLEGTC [HLA-C_Y183_L180R] | 0.47 | 0.578 | 0.528 | 0.472 | 0.822 | 0.524 | 0.482 | 0.675 | 0.45 | 0.917 | 0.498 | 1.01 | 0.832
1.18 | 0.783 | 0.612 | FSAGTYPRLEE [SYCN_Y108] | 0.372 | 0.493 | 0.464 | 0.464 | 0.672 | 0.406 | 0.41 | 0.659 | 0.392 | 0.828 | 0.464 | 0.918 | 0.765
0.68 | 0.94 | 0.629 | YGSGNYNDFGN [HNRNPA2B1_Y300] | 0.501 | 3 | 1.01 | 0.719 | 0.923 | 0.632 | 0.668 | 0.654 | 0.643 | 0.966 | 0.424 | 1.08 | 1.03
1.3 | 1.95 | 1.74 | VIIVLYFSLWK [SLC6A2_Y249_V245I] | 0.354 | 0.363 | 0.371 | 0.462 | 0.693 | 0.369 | 0.375 | 0.548 | 0.386 | 0.702 | 0.471 | 0.631 | 0.774
0.608 | 0.755 | 0.903 | AFLQTYAHEVS [PCDHGA5_Y753_S754A] | 0.503 | 0.455 | 0.565 | 0.621 | 0.693 | 0.506 | 0.49 | 0.617 | 0.474 | 0.786 | 0.521 | 0.985 | 0.896
0.663 | 0.834 | 0.391 | PEVRRHVLPLN [RPE65_Y368_Y368H] | 0.669 | 0.849 | 0.886 | 0.707 | 1.73 | 0.894 | 0.587 | 1.03 | 0.661 | 1.57 | 0.843 | 1.61 | 1.35
0.455 | 0.644 | 0.778 | RASSVFTRSTG [CCR5_Y339_Y339F] | 0.624 | 0.619 | 0.468 | 0.589 | 0.861 | 0.579 | 0.868 | 0.797 | 0.821 | 0.766 | 0.736 | 0.732 | 0.73
0.683 | 1.12 | 0.834 | MHDKEYFSVHN [MET_Y1234_Y1230H_YF] | 0.449 | 0.554 | 0.619 | 1.4 | 0.737 | 0.494 | 0.53 | 0.969 | 0.487 | 0.921 | 0.497 | 0.741 | 0.954
0.459 | 0.884 | 0.747 | RSSKMYFKTRS [LPL_Y329_L330F] | 0.712 | 0.685 | 0.567 | 0.701 | 1.07 | 0.634 | 0.667 | 0.561 | 0.856 | 0.989 | 0.764 | 1.22 | 1.2
0.609 | 0.686 | 0.523 | SLQFEYVHYGG [CDC14A_Y591_S589F] | 0.348 | 0.556 | 0.628 | 0.797 | 0.405 | 0.551 | 0.516 | 0.742 | 0.465 | 0.766 | 0.481 | 0.904 | 1.06
0.804 | 0.824 | 0.729 | ARQEEYSAMRD [KRAS_Y64_G60R] | 0.497 | 0.508 | 0.563 | 0.518 | 0.837 | 0.488 | 0.429 | 0.584 | 0.497 | 0.896 | 0.387 | 0.902 | 0.962
0.717 | 0.713 | 2.38 | PLQKTYNFNML [SLC4A1_Y553_V557M_YF] | 0.582 | 0.476 | 0.587 | 0.318 | 0.63 | 0.594 | 0.493 | 0.809 | 0.784 | 0.861 | 0.665 | 1.17 | 0.801
0.553 | 0.9 | 0.724 | SHLLRYLSWTV [CLCNKB_Y93] | 0.37 | 0.553 | 0.528 | 0.684 | 0.781 | 0.544 | 0.468 | 0.7 | 0.368 | 1.06 | 0.478 | 1.23 | 1.24
